The record followed here is article PMC4789156 (Translational research : the journal of laboratory and …, 2015).

The target in this assay is Recombinant human Smad2 with C-terminal MYC/DDK tag (human, UniProt Q15796-1 1-467). As to the kind of experiment: co-IP.
Chain of Recombinant human Smad2 with C-terminal MYC/DDK tag (Q15796 whole entry): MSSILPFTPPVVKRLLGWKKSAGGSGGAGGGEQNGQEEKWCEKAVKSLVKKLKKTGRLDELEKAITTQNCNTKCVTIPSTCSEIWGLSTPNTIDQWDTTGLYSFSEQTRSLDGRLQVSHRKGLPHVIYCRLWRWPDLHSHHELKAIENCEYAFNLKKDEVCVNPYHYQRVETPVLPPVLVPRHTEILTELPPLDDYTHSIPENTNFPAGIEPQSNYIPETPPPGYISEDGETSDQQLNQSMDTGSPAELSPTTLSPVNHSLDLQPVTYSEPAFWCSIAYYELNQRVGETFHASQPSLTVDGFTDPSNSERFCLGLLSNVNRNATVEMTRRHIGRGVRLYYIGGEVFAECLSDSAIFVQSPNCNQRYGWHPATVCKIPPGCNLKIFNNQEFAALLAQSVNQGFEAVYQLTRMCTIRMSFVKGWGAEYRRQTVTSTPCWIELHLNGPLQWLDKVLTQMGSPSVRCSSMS

As to TRPASFWETS [M10 peptide (caspase-3 cleavage product of the hepatocyte growth factor receptor MET)], the binding result was “binds”.
